Reference: patent publication US20050176069A1 (PHARMACIA AND UPJOHN, published 2005)
Where no end group is shown, it is not given here.

Assays:
CEGPCR16 = molecular target: T1, CEGPCR16 (C. elegans); experiment: cell-based or functional assay
T1 chain: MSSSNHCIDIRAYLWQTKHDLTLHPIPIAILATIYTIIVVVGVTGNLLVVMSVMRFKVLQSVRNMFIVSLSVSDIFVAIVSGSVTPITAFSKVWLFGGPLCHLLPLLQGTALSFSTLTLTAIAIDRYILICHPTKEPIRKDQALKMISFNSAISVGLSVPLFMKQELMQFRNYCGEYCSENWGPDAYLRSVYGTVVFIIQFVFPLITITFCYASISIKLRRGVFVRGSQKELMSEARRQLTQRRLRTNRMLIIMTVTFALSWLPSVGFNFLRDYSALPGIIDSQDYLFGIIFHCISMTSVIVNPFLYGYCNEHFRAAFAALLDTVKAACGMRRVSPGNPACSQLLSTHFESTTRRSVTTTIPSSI

CEGPCR4 = molecular target: T2, CEGPCR4 (C. elegans); experiment: competition binding assay, CEGPCR4/CHO membranes, vs [125I-Y]DVPGVLRF-NH2
T2 construct: Expressed in CHO cells
T2 chain: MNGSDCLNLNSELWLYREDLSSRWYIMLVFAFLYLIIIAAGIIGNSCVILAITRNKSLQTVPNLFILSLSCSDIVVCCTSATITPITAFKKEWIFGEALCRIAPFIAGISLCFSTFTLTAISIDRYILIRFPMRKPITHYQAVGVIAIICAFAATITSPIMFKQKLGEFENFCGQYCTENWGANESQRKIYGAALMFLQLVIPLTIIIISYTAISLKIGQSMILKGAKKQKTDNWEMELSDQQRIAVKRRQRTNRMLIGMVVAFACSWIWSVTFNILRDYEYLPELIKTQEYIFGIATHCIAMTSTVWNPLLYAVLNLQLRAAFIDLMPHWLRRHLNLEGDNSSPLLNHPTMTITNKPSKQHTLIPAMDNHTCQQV

B1: SVPGVLRF-NH2 (peptide)
peptide: SVPGVLRF-NH2
EC50, [35S]GTPγS assay (CEGPCR16): 64 nM
IC50 (CEGPCR4): 0.5 to 10 nM
